# According to paper PMC7939390 (The Journal of Biological Chemistry, 2020):
# No end group written: not given here. *: point of attachment. FITC = O=C1OC2(c3ccc(O)cc3Oc3cc(O)ccc32)c2ccc(NC(=S)*)cc21
# T1: PBP1b R141A/R397A (E. coli, UniProt P02919 1-844, R141A | R397A)
# T1 sequence (looked up): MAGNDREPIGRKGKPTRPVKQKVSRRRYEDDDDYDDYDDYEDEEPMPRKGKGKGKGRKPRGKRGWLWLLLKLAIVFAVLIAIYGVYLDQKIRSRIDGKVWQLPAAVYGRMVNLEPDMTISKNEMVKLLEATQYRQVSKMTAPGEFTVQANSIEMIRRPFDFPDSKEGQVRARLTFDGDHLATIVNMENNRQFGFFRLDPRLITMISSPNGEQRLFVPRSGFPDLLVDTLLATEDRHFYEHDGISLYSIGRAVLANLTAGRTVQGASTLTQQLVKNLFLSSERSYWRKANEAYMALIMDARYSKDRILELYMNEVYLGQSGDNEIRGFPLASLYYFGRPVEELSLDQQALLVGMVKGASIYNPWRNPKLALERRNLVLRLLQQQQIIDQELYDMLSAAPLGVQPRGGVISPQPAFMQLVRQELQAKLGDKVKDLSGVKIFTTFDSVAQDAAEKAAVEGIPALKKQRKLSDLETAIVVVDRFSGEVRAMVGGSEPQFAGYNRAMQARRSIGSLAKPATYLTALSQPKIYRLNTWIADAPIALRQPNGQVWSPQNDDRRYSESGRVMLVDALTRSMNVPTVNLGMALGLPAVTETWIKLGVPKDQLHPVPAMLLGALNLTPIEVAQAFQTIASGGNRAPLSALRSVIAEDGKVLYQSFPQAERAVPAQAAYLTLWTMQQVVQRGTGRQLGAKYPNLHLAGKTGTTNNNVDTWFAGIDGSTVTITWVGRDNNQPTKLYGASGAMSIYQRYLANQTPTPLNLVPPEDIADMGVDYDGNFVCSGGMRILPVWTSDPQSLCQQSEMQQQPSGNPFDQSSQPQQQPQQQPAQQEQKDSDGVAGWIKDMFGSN
# T2: PBP1b (Escherichia coli, UniProt P02919)
# T2 sequence (P02919 1-799 isoform P02919-2): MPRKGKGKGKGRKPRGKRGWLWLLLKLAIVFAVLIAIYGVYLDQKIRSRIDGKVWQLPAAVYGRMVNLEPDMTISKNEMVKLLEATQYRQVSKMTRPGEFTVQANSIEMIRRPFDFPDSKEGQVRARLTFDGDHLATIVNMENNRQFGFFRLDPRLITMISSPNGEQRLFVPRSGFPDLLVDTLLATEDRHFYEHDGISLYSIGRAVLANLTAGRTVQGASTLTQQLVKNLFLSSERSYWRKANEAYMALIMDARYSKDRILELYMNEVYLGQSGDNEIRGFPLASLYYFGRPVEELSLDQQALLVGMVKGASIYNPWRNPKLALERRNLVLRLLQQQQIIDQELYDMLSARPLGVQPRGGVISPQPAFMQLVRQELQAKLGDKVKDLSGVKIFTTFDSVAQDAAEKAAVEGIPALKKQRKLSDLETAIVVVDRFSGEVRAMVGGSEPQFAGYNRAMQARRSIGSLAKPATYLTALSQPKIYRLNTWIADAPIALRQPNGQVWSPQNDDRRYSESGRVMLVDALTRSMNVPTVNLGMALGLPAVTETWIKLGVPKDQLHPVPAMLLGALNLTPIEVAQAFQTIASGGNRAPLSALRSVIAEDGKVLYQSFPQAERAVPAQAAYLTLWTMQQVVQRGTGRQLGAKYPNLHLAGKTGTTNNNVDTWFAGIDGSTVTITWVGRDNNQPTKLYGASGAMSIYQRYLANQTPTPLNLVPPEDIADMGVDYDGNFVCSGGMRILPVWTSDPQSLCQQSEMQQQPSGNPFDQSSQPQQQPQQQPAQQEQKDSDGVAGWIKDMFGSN
# T3: PBP1bγ (penicillin-binding protein 1b, gamma form) (E. coli, UniProt P02919-2 1-799)
# T3 construct: also called 1b WT
# T3 sequence (looked up): T2 sequence (P02919 1-799 isoform P02919-2)
# T4: PBP1b (positions 58–804) (E. coli, UniProt P02919 58-804)
# T4 construct: Crystallized with moenomycin A (1:1) and the EFtsN peptide (3:1); also called PBP1b (Lys58–Ser804); source: purified (details in the supporting information)
# T4 sequence (looked up): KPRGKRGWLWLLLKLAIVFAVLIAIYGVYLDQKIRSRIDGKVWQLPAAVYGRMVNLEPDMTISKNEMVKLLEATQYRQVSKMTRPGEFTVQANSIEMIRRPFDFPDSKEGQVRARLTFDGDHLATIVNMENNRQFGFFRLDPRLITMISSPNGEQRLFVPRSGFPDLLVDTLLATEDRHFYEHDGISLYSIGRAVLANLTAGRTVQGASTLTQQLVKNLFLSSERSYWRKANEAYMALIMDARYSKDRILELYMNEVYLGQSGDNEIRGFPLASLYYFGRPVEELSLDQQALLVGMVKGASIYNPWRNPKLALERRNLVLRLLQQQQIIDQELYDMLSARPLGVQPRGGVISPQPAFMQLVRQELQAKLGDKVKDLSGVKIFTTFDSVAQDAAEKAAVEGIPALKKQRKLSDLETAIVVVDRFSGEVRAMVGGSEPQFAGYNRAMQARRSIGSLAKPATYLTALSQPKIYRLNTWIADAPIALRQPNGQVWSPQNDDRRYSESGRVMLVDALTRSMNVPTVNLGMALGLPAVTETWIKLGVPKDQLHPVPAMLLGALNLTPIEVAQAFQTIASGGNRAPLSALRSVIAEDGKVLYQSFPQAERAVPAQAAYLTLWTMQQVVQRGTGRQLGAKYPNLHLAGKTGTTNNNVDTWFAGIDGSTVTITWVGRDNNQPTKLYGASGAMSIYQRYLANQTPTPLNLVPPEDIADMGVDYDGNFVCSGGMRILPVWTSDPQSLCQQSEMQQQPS
# B1: HisFtsN (full-length FtsN) (natural protein, E. coli, UniProt P29131 1-319, looked up)
# chain: MAQRDYVRRSQPAPSRRKKSTSRKKQRNLPAVSPAMVAIAAAVLVTFIGGLYFITHHKKEESETLQSQKVTGNGLPPKPEERWRYIKELESRQPGVRAPTEPSAGGEVKTPEQLTPEQRQLLEQMQADMRQQPTQLVEVPWNEQTPEQRQQTLQRQRQAQQLAEQQRLAQQSRTTEQSWQQQTRTSQAAPVQAQPRQSKPASSQQPYQDLLQTPAHTTAQSKPQQAAPVARAADAPKPTAEKKDERRWMVQCGSFRGAEQAETVRAQLAFEGFDSKITTNNGWNRVVIGPVKGKENADSTLNRLKMAGHTNCIRLAAGG
# B2: PBP1b^WT: PBP1b wild-type (protein)
# chain: T2 sequence (P02919 1-799 isoform P02919-2)
# B3: LpoB: outer-membrane lipoprotein LpoB (protein, UniProt P0AB38 20-213, looked up)
# Penicillin-binding protein …: CVGQREPAPVEEVKPAPEQPAEPQQPVPTVPSVPTIPQQPGPIEHEDQTAPPAPHIRHYDWNGAMQPMVSKMLGADGVTAGSVLLVDSVNNRTNGSLNAAEATETLRNALANNGKFTLVSAQQLSMAKQQLGLSPQDSLGTRSKAIGIARNVGAHYVLYSSASGNVNAPTLQMQLMLVQTGEIIWSGKGAVSQQ
# B4: FITC-labeled peptide (FITC-Lys69–Gln93) of FtsN (peptide)
# peptide: {FITC}-KVTGNGLPPKPEERWRYIKELESRQ
# notes: also called F-EFtsN; fluorescent EFtsN peptide; source: synthetic peptide, bought: Synpeptide (Shanghai, China)
# B5: EFtsN peptide (Leu75–Gln93), unlabeled (peptide)
# peptide: LPPKPEERWRYIKELESRQ
# notes: FtsN, E. coli, residues Leu75–Gln93 (essential region around helix H2); also called essential region of FtsN; synthetic peptide Leu75–Gln93; source: synthetic peptide, bought: Synpeptide (Shanghai, China)
# Experiments:
# PBP1b R141A/R397A = molecular target: T1, PBP1b R141A/R397A; test: cell-based or functional assay
# [1] = test system: E. coli EJ801 (ΔponB-ponA^ts); test: microscopy of EJ801 cells, cell morphology and length; type: cell-based, Escherichia coli; set-up: cell length L: unit not given here; details: EJ801 after 1 h at 42 °C, n = 250, phase contrast, ImageJ/ObjectJ
# Protocol: Samples were taken from the complementation cultures (42 °C) at different time (1-h intervals), and the cells were fixed as described ([63]). Photographs were taken with a cooled AxioCam MRm (Zeiss) mounted on a Zeiss Axio Imager. Z1 microscope, and the images were acquired in phase-contrast mode using the AxioVision Rel. 4.5 (Zeiss) software. The cell morphologies analysis were determined using ImageJ software (RRID:SCR_003070) running under plugin ObjectJ (RRID:SCR_019190).
# PBP1b^R141A/R397A = type: biochemical, Escherichia coli; details: versus PBP1b^WT; GTase, dansyl-lipid II; mean ± s.d. of three experiments
# Protocol: The error bars represent the values as means ± S.D. of three experiments.
# The GTase activity assays with dansyl-lipid II as substrate were performed in a medium binding black 96-well microplate (Greiner Bio One) as described ([57]). The samples contained 10 μM dansyl-lipid II, 50 mM HEPES-NaOH, pH 7.5, 200 mM NaCl, 10 mM CaCl2, 0.085% of decyl-PEG, 20% of DMSO, and 1 unit of N-acetylmuramidase of Streptomyces globisporus (Sigma). […] The reactions were initiated by the addition of 30 nM PBP1bγ (100 nM for PBP1a) and monitored by following the fluorescence decrease over 20 min at 30 °C using an Infinite 200 PRO microplate reader (Tecan, Männedorf, Switzerland) with excitation wavelength at 340 nm and emission at 520 nm.
# activity of the PBP1bWT and PBP1bR141A-R397A was monitored in the presence or the absence of LpoB by
# continuous fluorescence assay using dansyl-lipid II (LII) as substrate. The error bars represent the values
# as mean ± s.d. of three experiments.
# PBP1b = molecular target: T2, PBP1b; details: cited from earlier work
# From the text: Bacteria generally have at least one bifunctional (GTase/TPase) PBP of class A and one monofunctional (TPase only) PBP of class B ([2], [13]). E. coli contains three aPBPs: PBP1a, 1b, and 1c, and two bPBPs: PBP2 and PBP3, the latter being involved in cell elongation and division, respectively ([14]). PBP1a and PBP1b are major PG synthases and at least one of them is required for cell viability ([15]).
# [2] = molecular target: T3, PBP1bγ (penicillin-binding protein 1b, …); test: fluorescence polarisation; fluorescence anisotropy; FITC-Lys69–Gln93 probe at 100 nM, serial dilutions of the proteins in their specific buffer, 384-well plates, 30 min at 25 °C; details: both partners purified
# PBP1b (positions 58–804) = molecular target: T4, PBP1b (positions 58–804); test: crystal structure; co-crystallization of PBP1b (Lys58–Ser804) with moenomycin A (1:1) and EFtsN peptide (3:1), hanging drop, 20 °C; 2.4 Å; details: both partners purified
molecule,measurement,setting,value
B1,"fold decrease in activation of the GTase activity of PBP1b R141A/R397A by FtsN against the WT protein, continuous fluorescence assay",PBP1b R141A/R397A,2 fold
B2,cell length L,[1],2.17 ± 0.46
B3,activation of PBP1b^R141A/R397A by LpoB,PBP1b^R141A/R397A,remained unchanged
same,catalytic activities of PBP1b (literature),PBP1b,stimulates both of its catalytic activities
B4,Kd,[2],8.1 ± 1.7 µM
B5,binding result,PBP1b (positions 58–804),binds
